± gives the standard error. This sample holds only a part of the variants without activity.
B1: glmS ribozyme (parent)
chain: AUAAAAGCGCCAGAACUACAGAAAUGUAGUUGACGAGGAGGAGGUUUAUCGAAUUUUCGGCGGAUGCCUCCAAA

Columns and labels:
Details in all cases: with glucosamine-6-phosphate
glucosamine-6-phosphate [1] = variants of: B1; assay: self-cleavage kobs at 40 uM GlcN6P; higher = faster cleavage; RNA array
Procedure, shortened: (§1)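 Using a hybridised Cy3 probe at 37 °C, barcoded ribozyme variants transcribed in situ by E. coli RNA polymerase on sequenced MiSeq chips were monitored across tiles imaged over ~14 h. The flow contained glucosamine-6-phosphate from 40 μM to 10 mM in HEPES/KCl/Mg(OAc)2 buffer. Signals were normalised to baseline and to non-cleaving reference variants before per-tile medians were fit to one- or two-exponential decays to yield kobs. Weighted Michaelis–Menten fits across concentrations gave kcat and KM.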

glucosamine-6-phosphate [2] = variants of: B1; assay: self-cleavage kobs at 160 uM GlcN6P; higher = faster cleavage; RNA array
Procedure, shortened: as §1

glucosamine-6-phosphate [3] = variants of: B1; assay: self-cleavage kobs at 640 uM GlcN6P; higher = faster cleavage; RNA array
Procedure, shortened: as §1

glucosamine-6-phosphate [4] = variants of: B1; assay: self-cleavage kobs at 2500 uM GlcN6P; higher = faster cleavage; RNA array
Procedure, shortened: as §1

glucosamine-6-phosphate [5] = variants of: B1; assay: self-cleavage kobs at 10000 uM GlcN6P; higher = faster cleavage; RNA array
Procedure, shortened: as §1

Variant | self-cleavage kobs at 40 uM GlcN6P (glucosamine-6-phosphate [1]) [s⁻¹] | self-cleavage kobs at 160 uM GlcN6P (glucosamine-6-phosphate [2]) [s⁻¹] | self-cleavage kobs at 640 uM GlcN6P (glucosamine-6-phosphate [3]) [s⁻¹] | self-cleavage kobs at 2500 uM GlcN6P (glucosamine-6-phosphate [4]) [s⁻¹] | self-cleavage kobs at 10000 uM GlcN6P (glucosamine-6-phosphate [5]) [s⁻¹]
AUAAAAGCGCCAGAACUACAGAAAUGUAGUUGACGAGGAGGAGGUUUAUCGAAUUUUCAGCGCAUGCCUCCAAA [G59A G63C] | < 1e-05 | < 1e-05 | < 1e-05 | < 1e-05 | –
AUAAAAGCGCCAGAAGUACAGAAAUGUACUUGACGAGGAGGAGGUUUAUCGAAUUUUCGGCGGAUGCCUCCAAA [C16G G29C] | 0.000686 ± 9.2e-05 | 0.00103 ± 0.00047 | 0.00972 ± 0.0043 | 0.00501 ± 0.0018 | 0.0294 ± 0.0058
AUAAAAGCGCCAGAGCUACAGAAAUGUAGUUUACGAGGAGGAGGUUUAUCGAAUUGUCGUCGGAUGCCUCCAAA [A15G G32U U56G G60U] | < 1e-05 | – | – | – | –
AUAAAAGCGCCAGGACUACAGAAAUGUAGUUGACGAGGAGGAGGUUUAUCGAAUUUUCGGCUGAUGCCUCCAAA [A14G G62U] | < 1e-05 | – | – | < 1e-05 | < 1e-05
AUAAAACCGCCAGAACUACAGAAAUGUAGUUGACGAGGAAGAGGUUUAUCGAAUUUUCGGCGGAUGCCUCCAAA [G7C G40A] | < 1e-05 | < 1e-05 | < 1e-05 | < 1e-05 | < 1e-05
AUAAAAGCGCCAGAACUACAGAAAUGUAGUUGACGUGGAGGAGGUUUUUCGAAUUUUCGGCGGAUGCCUCCAAA [A36U A48U] | < 1e-05 | < 1e-05 | – | < 1e-05 | < 1e-05
AUAAAAGCGCCAGAACUACAGAAAUGUAGCUGACAAGGAGGAGGUUUAUGGAAUUUUCGGUGGGUGCCUCCAAA [U30C G35A C50G C61U A64G] | 0.000165 ± 5.1e-05 | – | – | – | –
AUAAAGGCGCCAGAACUACAGAAAUGUAGUUGACGAGAAGGAGGUUUAUGGAAUUUUCGGCGGAUGCCUCAAAA [A6G G38A C50G C71A] | 9.73e-05 ± 2.8e-05 | – | – | – | –
AUAAAAGCGCCAGAACUACAGAAAUGUAGUUGACGAGGAGGAGCUUUAUCGAAUUUUCGGCGGAUGCCGCCAAA [G44C U69G] | < 1e-05 | – | – | < 1e-05 | < 1e-05
AUAAAAGCGCCAGAACUACAGAAAUGUAGUUGACGAGGUGGAGGAUUAUCGAAUUUUCGGCGGAUGCCUCCAAA [A39U U45A] | 0.000759 ± 9.8e-05 | 0.00209 ± 0.00053 | 0.0067 ± 0.0015 | 0.0135 ± 0.0033 | 0.0807 ± 0.02
AUAAAAGCGCCAGAACUACAGAAAUGUAGUUGACGAGGAGGAGGCUUAUCGAAUUUUCGCCGGAUGCCUCCAAA [U45C G60C] | < 1e-05 | < 1e-05 | < 1e-05 | < 1e-05 | < 1e-05
AUAAAAGCGCCAGAACUACAGAAAUGUAGUUGACGAGGAGGAGGUUUAUCGAAGUUUCGGCCGAUGCCCCCAAA [U54G G62C U69C] | < 1e-05 | – | – | – | < 1e-05

Source: the supplement of paper PMC7125110
